Experimental findings from publication PMC2789240, “Comparative structural, kinetic and inhibitor studies of Trypanosoma brucei trypanothione reductase with T. cruzi^” (Molecular and Biochemical Parasitology, 2010) are described below.

In the data set the test system is N[C@@H](CCC(=O)N[C@H]1CSSC[C@H](NC(=O)CC[C@H](N)C(=O)O)C(=O)NCC(=O)NCCCNCCCCNC(=O)CNC1=O)C(=O)O. The data set can be described thus: purified protein, by the assay type. The note with it: pH 7.4, 25.0 °C.

Broadly, the Km is the concentration of substrate that gives half-maximal velocity. As to “TbTryR (recombinant T. b. brucei trypanothione reductase) (Trypanosoma brucei brucei TREU927)”, the Km (other: saturating NADPH) worked out at 2.35 ± 0.07 µM.

As for “TbTryR (Trypanosoma brucei brucei TREU927)”, the Michaelis constant (Km) (other: 340 nm assay) came to 6.9 ± 0.7 µM.
